# Reference: the supplement of paper PMC9112550, “Optimization of the antimicrobial peptide Bac7 by deep mutational scanning” (BMC Biology, 2022)
# System: Escherichia coli TOP10
# Test: shrunken log2 fold change of peptide-encoding DNA abundance (4.5 h post-induction vs induction); higher = less antimicrobial activity (less host growth inhibition)
# Settings: time post-induction: 4.5 h; library: site-saturation at positions 5, 18, 19, 20
# 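Also: peptides expressed intracellularly from a pBAD plasmid library in pooled LB shake-flask culture, induced with 0.3% L-arabinose, DNA abundance read by NGS, three biological replicates, DESeq2 with apeglm shrinkage.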
row,Sequence,shrunken log2 fold change
1,RRIRRRPPRLPRPRPRPNTQPRP,0.0214
2,RRIRVRPPRLPRPRPRPFPFPRP,-0.199
3,RRIRWRPPRLPRPRPRPIPMPRP,0.112
4,RRIRDRPPRLPRPRPRPSQCPRP,-0.034
5,RRIRCRPPRLPRPRPRPGNAPRP,0.185
6,RRIRQRPPRLPRPRPRPEQPPRP,0.393
7,RRIRHRPPRLPRPRPRPGQDPRP,0.0217
8,RRIRTRPPRLPRPRPRPIMGPRP,-0.0135
9,RRIRIRPPRLPRPRPRPLAFPRP,-0.302
10,RRIRIRPPRLPRPRPRPLMQPRP,-0.564
11,RRIRHRPPRLPRPRPRPMGAPRP,0.0492
12,RRIRHRPPRLPRPRPRPTILPRP,-0.194
13,RRIRLRPPRLPRPRPRPDVFPRP,-0.165
14,RRIRWRPPRLPRPRPRPTVTPRP,0.0889
15,RRIRERPPRLPRPRPRPFRRPRP,0.0491
16,RRIRPRPPRLPRPRPRPYNHPRP,-1.2
17,RRIRKRPPRLPRPRPRPCRMPRP,-0.00386
18,RRIRSRPPRLPRPRPRPDKSPRP,-0.2
19,RRIRIRPPRLPRPRPRPHTLPRP,-0.436
20,RRIRLRPPRLPRPRPRPIQFPRP,-0.0198
21,RRIRGRPPRLPRPRPRPIDWPRP,0.559
22,RRIRYRPPRLPRPRPRPWCWPRP,-0.153

row,Sequence,shrunken log2 fold change
1,RRIRTRPPRLPRPRPRPPLRPRP,0.314
2,RRIRDRPPRLPRPRPRPNYPPRP,0.0151
3,RRIRVRPPRLPRPRPRPDPEPRP,-0.0984
4,RRIRFRPPRLPRPRPRPDWPPRP,-0.0836
5,RRIRTRPPRLPRPRPRPVPLPRP,-0.145
6,RRIRGRPPRLPRPRPRPHWCPRP,0.00693
7,RRIRLRPPRLPRPRPRPWFRPRP,-0.252
8,RRIRKRPPRLPRPRPRPVMWPRP,-0.221
9,RRIRYRPPRLPRPRPRPNMEPRP,-0.618
10,RRIRWRPPRLPRPRPRPYAGPRP,0.0399
11,RRIRTRPPRLPRPRPRPERSPRP,0.104
12,RRIRERPPRLPRPRPRPARNPRP,0.194
13,RRIRNRPPRLPRPRPRPNMSPRP,-0.0455
14,RRIRDRPPRLPRPRPRPDAPPRP,0.788
15,RRIRCRPPRLPRPRPRPHFRPRP,-0.308
16,RRIRYRPPRLPRPRPRPGVCPRP,-0.0493
17,RRIRMRPPRLPRPRPRPHFNPRP,-0.0825
18,RRIRIRPPRLPRPRPRPLSAPRP,-0.112
19,RRIRMRPPRLPRPRPRPEESPRP,0.113
20,RRIRWRPPRLPRPRPRPHPVPRP,-0.0118
21,RRIRNRPPRLPRPRPRPCFAPRP,0.0964
22,RRIRSRPPRLPRPRPRPVSHPRP,-0.188

row,Sequence,shrunken log2 fold change
1,RRIRLRPPRLPRPRPRPKDMPRP,-0.0444
2,RRIRLRPPRLPRPRPRPWPAPRP,0.0194
3,RRIRNRPPRLPRPRPRPYFWPRP,-0.0871
4,RRIRWRPPRLPRPRPRPLDEPRP,0.53
5,RRIRCRPPRLPRPRPRPMMEPRP,-0.105
6,RRIRKRPPRLPRPRPRPKLRPRP,-0.0198
7,RRIRNRPPRLPRPRPRPFMCPRP,-0.202
8,RRIRRRPPRLPRPRPRPIQEPRP,0.0641
9,RRIRLRPPRLPRPRPRPYNGPRP,-0.103
10,RRIRGRPPRLPRPRPRPKWQPRP,0.194
11,RRIRCRPPRLPRPRPRPGLTPRP,0.108
12,RRIRLRPPRLPRPRPRPHIEPRP,-0.0305
13,RRIRERPPRLPRPRPRPREYPRP,-0.242
14,RRIRYRPPRLPRPRPRPFEWPRP,0.0273
15,RRIRSRPPRLPRPRPRPMQGPRP,-0.181
16,RRIRFRPPRLPRPRPRPTNKPRP,-0.301
17,RRIRSRPPRLPRPRPRPPLEPRP,0.367
18,RRIRSRPPRLPRPRPRPDQSPRP,0.217
19,RRIRVRPPRLPRPRPRPLKSPRP,-0.137
20,RRIRRRPPRLPRPRPRPSAEPRP,0.716
21,RRIRCRPPRLPRPRPRPPQTPRP,0.665
22,RRIRKRPPRLPRPRPRPSHGPRP,-0.216

row,Sequence,shrunken log2 fold change
1,RRIRPRPPRLPRPRPRPVMSPRP,0.0198
2,RRIRFRPPRLPRPRPRPQRDPRP,0.218
3,RRIRHRPPRLPRPRPRPMEHPRP,-0.337
4,RRIRMRPPRLPRPRPRPPQEPRP,0.161
5,RRIRDRPPRLPRPRPRPIKLPRP,-0.213
6,RRIRERPPRLPRPRPRPASAPRP,0.33
7,RRIRTRPPRLPRPRPRPTGQPRP,0.031
8,RRIRSRPPRLPRPRPRPACNPRP,-0.285
9,RRIRHRPPRLPRPRPRPHNYPRP,-0.296
10,RRIRGRPPRLPRPRPRPRSCPRP,0.759
11,RRIRWRPPRLPRPRPRPCCRPRP,0.174
12,RRIRCRPPRLPRPRPRPKIEPRP,-0.0736
13,RRIRMRPPRLPRPRPRPLGDPRP,0.364
14,RRIRSRPPRLPRPRPRPQSYPRP,0.107
15,RRIRQRPPRLPRPRPRPQANPRP,-0.165
16,RRIRERPPRLPRPRPRPMIAPRP,0.121
17,RRIRMRPPRLPRPRPRPLSLPRP,0.0457
18,RRIRRRPPRLPRPRPRPDRRPRP,0.108
19,RRIRARPPRLPRPRPRPWMWPRP,0.213
20,RRIRNRPPRLPRPRPRPSNEPRP,-0.717
21,RRIRARPPRLPRPRPRPNKIPRP,-0.136
22,RRIRNRPPRLPRPRPRPNDQPRP,-0.309

row,Sequence,shrunken log2 fold change
1,RRIRYRPPRLPRPRPRPTILPRP,-0.521
2,RRIRWRPPRLPRPRPRPNRPPRP,0.078
3,RRIRKRPPRLPRPRPRPQHNPRP,-0.145
4,RRIRIRPPRLPRPRPRPETVPRP,-0.344
5,RRIRPRPPRLPRPRPRPRCHPRP,0.144
6,RRIRLRPPRLPRPRPRPWIYPRP,-0.385
7,RRIRLRPPRLPRPRPRPFMAPRP,-0.343
8,RRIRIRPPRLPRPRPRPVYNPRP,-0.314
9,RRIRGRPPRLPRPRPRPTQNPRP,0.972
10,RRIRERPPRLPRPRPRPRAQPRP,0.22
11,RRIRFRPPRLPRPRPRPQTRPRP,0.149
12,RRIRVRPPRLPRPRPRPRAQPRP,0.126
13,RRIRIRPPRLPRPRPRPFFTPRP,-0.312
14,RRIRWRPPRLPRPRPRPYLPPRP,-0.826
15,RRIRMRPPRLPRPRPRPNNQPRP,-0.0328
16,RRIRFRPPRLPRPRPRPLKEPRP,-0.273
17,RRIRQRPPRLPRPRPRPIEGPRP,0.0763
18,RRIRWRPPRLPRPRPRPSIIPRP,-0.31
19,RRIRCRPPRLPRPRPRPYDRPRP,-0.188
20,RRIRFRPPRLPRPRPRPWPQPRP,0.127
21,RRIRNRPPRLPRPRPRPLVKPRP,-0.741
